Results on 33 molecules are retold here after patent US20110212084A1 (AstraZeneca / MedImmune, published 2011).

Where a chain is given by its changes, count along the chain named.

By IC50 is commonly meant the midpoint of a concentration-inhibition curve.

B1: Antibody 10 (scFv) (scFv, V domains shown)
VH: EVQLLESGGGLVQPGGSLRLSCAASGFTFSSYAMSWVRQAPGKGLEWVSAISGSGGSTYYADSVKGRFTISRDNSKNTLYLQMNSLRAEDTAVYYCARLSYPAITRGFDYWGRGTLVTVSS
VL: SYVLTQPPSVSVSPGQTASITCSGDKLGDKYASWYRQRSGQSPVLVIYQDDKRPSGIPERFSGSNSGNTATLTISGTHTMDEADYYCLAWDTRTSGAVFGGGTKLTVL
notes: purified scFv
B2: Antibody 9 (scFv) (scFv, V domains shown)
VH: EVQLLESGGGLVQPGGSLRLSCAASGFTFSSYAMSWVRQAPGKGLEWVSAISGGSGGRTYYADSVKGRFTISRDNSKNTLYLQMNSLRAEDTAVYYCARHIAVAGTRGFDYWGRGTLVTVSS
VL: B1 VL with Y2F, T5S, K30T
notes: purified scFv
B3: Antibody 12 (scFv) (scFv, V domains shown)
VH: EVQLLESGGGLVQPGGSLRLSCAASGFTFSSYAMSWVRQAPGKGLEWVSAISGSGGRTYYADSVKGRFTISRDNSKNTLYLQMNSLRAEDTAVYYCARHIAVAGTRGFDYWGRGTLVTVSS
VL: B1 VL with Y2F, V3M, T5S, K30T
notes: purified scFv
B4: Antibody 33 (scFv) (scFv, V domains shown)
VH: B2 VH with R19S, S25P, R73K
VL: B1 VL with K30T, Q41L, V44A
notes: purified scFv
B5: Antibody 34 (scFv) (scFv, V domains shown)
VH: B2 VH with S25P, F29L
VL: B1 VL with V12A, K30T, S55P, S75R, T106S
notes: purified scFv
B6: Antibody 15 (scFv) (scFv, V domains shown)
VH: B2 VH with S25P
VL: B1 VL with K30T, K52R
notes: purified scFv
B7: Antibody 36 (scFv) (scFv, V domains shown)
VH: B3 VH
VL: B1 VL with Y2F, V3M, T5S, K30T
notes: purified scFv
B8: Antibody 8 (scFv) (scFv, V domains shown)
VH: B2 VH with S25P
VL: B1 VL with K30T
notes: purified scFv
B9: Antibody 21 (scFv) (scFv, V domains shown)
VH: B3 VH with H99L, I100T, A101F, V102P, G104I
VL: B1 VL
notes: purified scFv
B10: Antibody 14 (scFv) (scFv, V domains shown)
VH: B3 VH with S25P, A33P, R57S
VL: B1 VL with Y2F, T5S, K30T
notes: purified scFv
B11: Antibody 29 (scFv) (scFv, V domains shown)
VH: B3 VH with H99L, I100T, A101F, V102P, G104I
VL: B1 VL with K30T
notes: purified scFv
B12: Antibody 20 (scFv) (scFv, V domains shown)
VH: B3 VH with H99S, I100T, A101Y, V102F, G104S
VL: B1 VL
notes: purified scFv
B13: Antibody 31 (scFv) (scFv, V domains shown)
VH: B3 VH with H99L, I100S, A101Y, V102P, G104I
VL: B1 VL
notes: purified scFv
B14: Antibody 30 (scFv) (scFv, V domains shown)
VH: B3 VH with H99L, I100S, A101Y, V102P, G104I
VL: B1 VL with K30T
notes: purified scFv
B15: Antibody 28 (scFv) (scFv, V domains shown)
VH: B3 VH with H99L, I100W, A101F, V102P, G104I
VL: B1 VL with K30T
notes: purified scFv
B16: Antibody 18 (scFv) (scFv, V domains shown)
VH: B2 VH with M34V
VL: B1 VL with K30T, N68D, H78R
notes: purified scFv
B17: Antibody 24 (scFv) (scFv, V domains shown)
VH: B2 VH with S25P, S121P
VL: B1 VL with Y2F, K30T
notes: purified scFv
B18: Antibody 13 (scFv) (scFv, V domains shown)
VH: B3 VH with T69A, I70V
VL: B1 VL with K30T, K52R
notes: purified scFv
B19: Antibody 17 (scFv) (scFv, V domains shown)
VH: B2 VH with S25P
VL: B1 VL with K30T, N68D
notes: purified scFv
B20: Antibody 22 (scFv) (scFv, V domains shown)
VH: B3 VH with V64A, S85G
VL: B1 VL with K30T, A32T, I57V
notes: purified scFv
B21: Antibody 11 (scFv) (scFv, V domains shown)
VH: B3 VH with L86P, T118A
VL: B1 VL with T21A, K30T
notes: purified scFv
B22: Antibody 26 (scFv) (scFv, V domains shown)
VH: B3 VH with F27L, S31G, T78M
VL: B1 VL with Y2F, K30T, S75G
notes: purified scFv
B23: Antibody 7 (scFv) (scFv, V domains shown)
VH: B3 VH with S54G
VL: B1 VL with V12A, K30T
notes: purified scFv
B24: Antibody 6 (scFv) (scFv, V domains shown)
VH: B3 VH with R72K, T115A
VL: B1 VL with K30T
notes: purified scFv
B25: Antibody 19 (scFv) (scFv, V domains shown)
VH: B2 VH with I51V
VL: B1 VL with Y2F, K30T, G76R
notes: purified scFv
B26: Antibody 23 (scFv) (scFv, V domains shown)
VH: B2 VH with G26E, S30G
VL: B1 VL with K30T, T69A
notes: purified scFv
B27: Antibody 3 (scFv) (scFv, V domains shown)
VH: B3 VH
VL: B1 VL with K30T, N68D
notes: purified scFv
B28: Antibody 25 (scFv) (scFv, V domains shown)
VH: B2 VH with S25P, V120I
VL: B1 VL with Y2F, K30T
notes: purified scFv
B29: Antibody 4 (scFv) (scFv, V domains shown)
VH: B3 VH with L116P
VL: B1 VL with Y2F, K30T
notes: purified scFv
B30: Antibody 5 (scFv) (scFv, V domains shown)
VH: B3 VH
VL: B1 VL with K30T, K52R, V107A
notes: purified scFv
B31: Antibody 2 (scFv) (scFv, V domains shown)
VH: B3 VH
VL: B1 VL with K30T, K52R
notes: purified scFv
B32: Antibody 27 (scFv) (scFv, V domains shown)
VH: B3 VH with H99S, I100T, A101Y, V102F, G104S
VL: B1 VL with K30T
notes: purified scFv
B33: Antibody 16 (scFv) (scFv, V domains shown)
VH: B2 VH with S25P
VL: B1 VL with K30T, K104E
notes: purified scFv

The target in one assay is T1, human IgEλ (U266 derived) (human, UniProt P01854 1-546).
T1 construct: mature; full-length IgE purified from U266 cells (Ikeyama et al. 1986); labelled with europium cryptate in the HTRF assays; also called human IgE (U266-derived)
As to the kind of experiment: HTRF receptor-ligand competition, scFv titrated; Eu-cryptate human IgE (U266) binding to human FcεRI-Fc; geomean. On the procedure: (§1) Purified scFv were tested in a receptor-ligand binding HTRF® (Homogeneous Time-Resolved Fluorescence) assay format for inhibition of either human IgE (U266-derived [Ikeyama et. al. 1986. Molecular Immunology 23 (2); p159-167]) or cyno IgE (recombinant, see materials and methods) labelled with europium cryptate (CIS bio International 62EUSPEA), binding to human FcεR1-Fc (in house NS0 cell produced). Example scFv potency data is included in Table 5a
(§2) Purified scFv were tested in a receptor-ligand binding HTRF® (Homogeneous Time-Resolved Fluorescence) assay format for inhibition of either human IgE (U266-derived [Ikeyama et. al. 1986. Molecular Immunology 23 (2); p159-167]) or cyno IgE (recombinant, see materials and methods) labelled with europium cryptate (CIS bio International 62EUSPEA), binding to human FcεR1-Fc (in house NS0 cell produced).
On the technique in general: In TR-FRET formats the signal depends on donor and acceptor labels being close together.
Regarding B1, the IC50 came to 10 nM.

Molecule B2 had an IC50 of 6 nM.

In turn, B3 returned an IC50 of 8 nM.

In the case of B4, the IC50 turned out to be 14 nM.

Molecule B5 gave an IC50 of 3 nM.

B6: the IC50 worked out at 4 nM.

In turn, B7 yielded an IC50 of 8 nM.

The target in a further assay is human IgEλ (U266 derived) (human, UniProt P01854 1-546). The assay is described as above. How it is done:
as §1, §2
Molecule B8 showed an IC50 of 8 nM.

Molecule B9 displayed an IC50 of 4 nM.

B10 showed an IC50 of 7 nM.

The molecule B11 displayed an IC50 of 6 nM.

In the case of B12, the IC50 was 5 nM.

B13: the IC50 worked out at 9 nM.

The molecule B14 displayed a half-maximal inhibitory concentration (IC50) of 4 nM.

For B15, the half-maximal inhibitory concentration (IC50) is 4 nM.

Molecule B16 showed an IC50 of 6 nM.

The molecule B17 displayed a concentration for half-maximal inhibition (IC50) of 4 nM.

As to B18, the IC50 was determined as 9 nM.

As for B19, the IC50 turned out to be 7 nM.

Turning to B20, the IC50 was found to be 7 nM.

As to B21, the IC50 amounted to 7 nM.

In the case of B22, the IC50 amounted to 8 nM.

B23: the IC50 amounted to 8 nM.

B24 yielded an IC50 of 8 nM.

The molecule B25 came in with an IC50 of 9 nM.

As to B26, the IC50 is 7 nM.

With B27, the IC50 amounted to 5 nM.

The molecule B28 displayed an IC50 of 6 nM.

Consider B29, for which the IC50 was 5.4 nM.

B30: the IC50 is 6 nM.

Take B31: the 50% inhibitory concentration (IC50) amounted to 7 nM.

Molecule B32 yielded an IC50 of 2 nM.

The molecule B33 returned an IC50 of 10 nM.

The target in another assay is T2, cynomolgus IgE (recombinant chimaeric D12 variable region / cynomolgus IgE constant region) (cynomolgus monkey (constant region)).
T2 construct: also called cyno IgE; cynomolgus IgE (in house HEK-EBNA derived)
T2 sequence (heavy, as listed by the source limits assumed, chain 1 of 2): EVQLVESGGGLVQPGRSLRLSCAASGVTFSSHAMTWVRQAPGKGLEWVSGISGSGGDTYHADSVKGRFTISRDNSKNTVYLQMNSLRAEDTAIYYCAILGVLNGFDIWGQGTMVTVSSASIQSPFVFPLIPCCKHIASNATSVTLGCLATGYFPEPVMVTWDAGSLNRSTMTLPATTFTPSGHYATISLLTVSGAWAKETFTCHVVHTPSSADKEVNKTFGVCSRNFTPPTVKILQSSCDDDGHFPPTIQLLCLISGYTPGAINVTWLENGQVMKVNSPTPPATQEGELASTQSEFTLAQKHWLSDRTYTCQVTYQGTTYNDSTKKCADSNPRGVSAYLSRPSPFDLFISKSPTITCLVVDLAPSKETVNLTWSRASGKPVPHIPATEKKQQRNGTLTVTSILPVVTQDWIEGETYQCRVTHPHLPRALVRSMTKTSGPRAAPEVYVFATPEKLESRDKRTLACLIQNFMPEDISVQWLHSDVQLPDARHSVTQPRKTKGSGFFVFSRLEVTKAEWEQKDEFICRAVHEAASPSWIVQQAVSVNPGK
T2 sequence (light, as listed by the source limits assumed, chain 2 of 2): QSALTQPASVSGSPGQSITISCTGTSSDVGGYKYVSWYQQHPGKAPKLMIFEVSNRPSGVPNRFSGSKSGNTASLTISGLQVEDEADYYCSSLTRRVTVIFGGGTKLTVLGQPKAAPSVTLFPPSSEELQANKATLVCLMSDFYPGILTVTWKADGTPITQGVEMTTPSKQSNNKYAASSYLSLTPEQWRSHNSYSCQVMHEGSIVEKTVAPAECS
As to the kind of experiment: HTRF receptor-ligand competition, scFv titrated; Eu-cryptate cynomolgus IgE binding to human FcεRI-Fc; geomean. How it is done:
as §1, §2
As to B8, the half-maximal inhibitory concentration (IC50) worked out at 438 nM.

Turning to B2, the IC50 amounted to 138 nM.

Consider B3, for which the IC50 amounted to 473 nM.

As to B16, the IC50 is 129 nM.

As to B17, the IC50 came out at 196 nM.

For B4, the IC50 was found to be 533 nM.

As to B19, the IC50 came to 264 nM.

Consider B22, for which the IC50 was 359 nM.

For the molecule B23, the half-inhibitory concentration (IC50) was 569 nM.

With B25, the IC50 amounted to 197 nM.

Take B5: the IC50 was 500 nM.

With B26, the IC50 is 331 nM.

As for B27, the IC50 was found to be 237 nM.

B28: the IC50 came to 188 nM.

With B6, the IC50 is 135 nM.

B29: the IC50 is 600 nM.

Regarding B30, the IC50 was 356 nM.

As for B31, the IC50 turned out to be 398 nM.

Take B7: the concentration for half-maximal inhibition (IC50) amounted to 407 nM.

With B32, the IC50 worked out at 379 nM.

Regarding B33, the IC50 turned out to be 280 nM.
